The test system of data set [1] is HeLa Kyoto. In words: solubility in G1/S (NP-40 vs SDS abundance) (log2 ratio); higher = more soluble. The following applies: cell cycle stage: G1/S.
Data set [2] relates to HeLa Kyoto. In words: melting temperature (median over replicates), in situ; higher = more thermally stable.
The test system of data set [3] is HeLa Kyoto. Nature of the data set: solubility change mitosis vs G1/S (difference of NP-40 vs SDS log2 ratios) (log2 ratio difference); higher = more soluble in mitosis.
Data set [4] deals with HeLa Kyoto. In words: thermal stability score vs G1/S (z-score of summed log2 fold changes over temperatures); higher = more thermally stable than in G1/S.
The mark [5] stands for this setting: cell cycle stage: early G1 (4.5 h after nocodazole release).
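Throughout, for melting temperature (median over replicates), in situ: HeLa Kyoto cells synchronized by double thymidine or nocodazole block, proteins quantified by TMT10plex mass spectrometry, three independent biological replicates.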
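Throughout, for solubility change mitosis vs G1/S (difference of NP-40 vs SDS log2 ratios): synchronized HeLa Kyoto cells (double thymidine block for G1/S, nocodazole release for mitosis), protein amounts in NP-40 versus SDS lysates quantified by mass spectrometry, three biological replicates.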
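Throughout, for solubility in G1/S (NP-40 vs SDS abundance): HeLa Kyoto cells arrested at G1/S by double thymidine block, proteins quantified by TMT10plex mass spectrometry in mild NP-40 versus SDS extracts, three biological replicates.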
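Throughout, for thermal stability score vs G1/S (z-score of summed log2 fold changes over temperatures): synchronized HeLa Kyoto cells, proteins quantified by TMT10plex mass spectrometry, three biological replicates, mitosis taken 0.5 h after nocodazole release, G1/S directly after double thymidine block.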

With “MALKMVKGSIDRMFDKNLQDLVRGIRNHKEDEAKYISQCIDEIKQELKQDNIAVKANAVCKLTYLQMLGYDISWAAFNIIEVMSASKFTFKRIGYLAASQSFHEGTDVIMLTTNQIRKDLSSPSQYDTGVALTGLSCFVTPDLARDLANDIMTLMSHTKPYIRKKAVLIMYKVFLKYPESLRPAFPRLKEKLEDPDPGVQSAAVNVICELARRNPKNYLSLAPLFFKLMTSSTNNWVLIKIIKLFGALTPLEPRLGKKLIEPLTNLIHSTSAMSLLYECVNTVIAVLISLSSGMPNHSASIQLCVQKLRILIEDSDQNLKYLGLLAMSKILKTHPKSVQSHKDLILQCLDDKDESIRLRALDLLYGMVSKKNLMEIVKKLMTHVDKAEGTTYRDELLTKIIDICSQSNYQYITNFEWYISILVELTRLEGTRHGHLIAAQMLDVAIRVKAIRKFAVSQMSALLDSAHLLASSTQRNGICEVLYAAAWICGEFSEHLQEPHHTLEAMLRPRVTTLPGHIQAVYVQNVVKLYASILQQKEQAGEAEGAQAVTQLMVDRLPQFVQSADLEVQERASCILQLVKHIQKLQAKDVPVAEEVSALFAGELNPVAPKAQKKVPVPEGLDLDAWINEPLSDSESEDERPRAVFHEEEQRRPKHRPSEADEEELARRREARKQEQANNPFYIKSSPSPQKRYQDTPGVEHIPVVQIDLSVPLKVPGLPMSDQYVKLEEERRHRQKLEKDKRRKKRKEKEKKGKRRHSSLPTESDEDIAPAQQVDIVTEEMPENALPSDEDDKDPNDPYRALDIDLDKPLADSEKLPIQKHRNTETSKSPEKDVPMVEKKSKKPKKKEKKHKEKERDKEKKKEKEKKKSPKPKKKKHRKEKEERTKGKKKSKKQPPGSEEAAGEPVQNGAPEEEQLPPESSYSLLAENSYVKMTCDIRGSLQEDSQVTVAIVLENRSSSILKGMELSVLDSLNARMARPQGSSVHDGVPVPFQLPPGVSNEAQYVFTIQSIVMAQKLKGTLSFIAKNDEGATHEKLDFRLHFSCSSYLITTPCYSDAFAKLLESGDLSMSSIKVDGIRMSFQNLLAKICFHHHFSVVERVDSCASMYSRSIQGHHVCLLVKKGENSVSVDGKCSDSTLLSNLLEEMKATLAKC [AP3D1]”, the “solubility in G1/S (log2)” value in the data set on HeLa Kyoto [1] is -0.378. Besides, the melting temperature with HeLa Kyoto [2] (cell cycle stage: G1/S) was 50.8 °C; in the data set on HeLa Kyoto [2] (cell cycle stage: mitosis) it was 50.6 °C. Besides, in the data set on HeLa Kyoto [3], the “solubility change mitosis (log2)” value was -0.178. Further, the results for the thermal stability score in the data set on HeLa Kyoto [4] (setting [5]) and with HeLa Kyoto [4] (cell cycle stage: mitosis) were -1.02 and -1.46, respectively.

For “MALKQEMAKSLLKTASLSGRTKLLHQTGLSLYSTSHGFYEEEVKKTLQQFPGGSIDLQKEDNGIGILTLNNPSRMNAFSGVMMLQLLEKVIELENWTEGKGLIVRGAKNTFSSGSDLNAVKSLGTPEDGMAVCMFMQNTLTRFMRLPLISVALVQGWALGGGAEFTTACDFRLMTPESKIRFVHKEMGIIPSWGGTTRLVEIIGSRQALKVLSGALKLDSKNALNIGMVEEVLQSSDETKSLEEAQEWLKQFIQGPPEVIRALKKSVCSGRELYLEEALQNERDLLGTVWGGPANLEAIAKKGKFNK [ECHDC1]”, the “solubility in G1/S (log2)” value in the data set with HeLa Kyoto [1] was determined as 0.284. Moreover, the values for the melting temperature with HeLa Kyoto [2] (cell cycle stage: G1/S) and in the data set with HeLa Kyoto [2] (cell cycle stage: mitosis) were 56.5 °C and 58.1 °C, respectively. Moreover, the “solubility change mitosis (log2)” value with HeLa Kyoto [3] was -0.0468. For the same sequence, the values for the thermal stability score in the data set with HeLa Kyoto [4] (setting [5]) and in the data set on HeLa Kyoto [4] (cell cycle stage: mitosis) were -1.01 and -1.18, respectively.

As for “MALLCLDGVFLSSAENDFVHRIQEELDRFLLQKQLSKVLLFPPLSSRLRYLIHRTAENFDLLSSFSVGEGWKRRTVICHQDIRVPSSDGLSGPCRAPASCPSRYHGPRPISNQGAAAVPRGARAGRWYRGRKPDQPLYVPRVLRRQEEWGLTSTSVLKREAPAGRDPEEPGDVGAGDPNSDQGLPVLMTQGTEDLKGPGQRCENEPLLDPVGPEPLGPESQSGKGDMVEMATRFGSTLQLDLEKGKESLLEKRLVAEEEEDEEEVEEDGPSSCSEDDYSELLQEITDNLTKKEIQIEKIHLDTSSFVEELPGEKDLAHVVEIYDFEPALKTEDLLATFSEFQEKGFRIQWVDDTHALGIFPCLASAAEALTREFSVLKIRPLTQGTKQSKLKALQRPKLLRLVKERPQTNATVARRLVARALGLQHKKKERPAVRGPLPP [R3HCC1]”, in the data set with HeLa Kyoto [1], the “solubility in G1/S (log2)” value is -0.047. Moreover, the melting temperature with HeLa Kyoto [2] (cell cycle stage: mitosis) is 51.1 °C. Moreover, in the data set with HeLa Kyoto [3], the “solubility change mitosis (log2)” value is -0.0167. Also, the thermal stability score in the data set with HeLa Kyoto [4] (setting [5]) is -0.563; in the data set on HeLa Kyoto [4] (cell cycle stage: mitosis) it was -0.284.

On to “MALLCYNRGCGQRFDPETNSDDACTYHPGVPVFHDALKGWSCCKRRTTDFSDFLSIVGCTKGRHNSEKPPEPVKPEVKTTEKKELCELKPKFQEHIIQAPKPVEAIKRPSPDEPMTNLELKISASLKQALDKLKLSSGNEENKKEEDNDEIKIGTSCKNGGCSKTYQGLESLEEVCVYHSGVPIFHEGMKYWSCCRRKTSDFNTFLAQEGCTKGKHMWTKKDAGKKVVPCRHDWHQTGGEVTISVYAKNSLPELSRVEANSTLLNVHIVFEGEKEFDQNVKLWGVIDVKRSYVTMTATKIEITMRKAEPMQWASLELPAAKKQEKQKDATTD [CHORDC1]”, for which the “solubility in G1/S (log2)” value in the data set with HeLa Kyoto [1] stood at 0.0558. In addition, the figures for the melting temperature in the data set on HeLa Kyoto [2] (cell cycle stage: G1/S) and in the data set on HeLa Kyoto [2] (cell cycle stage: mitosis) were 52 °C and 52.4 °C, respectively. Moreover, the “solubility change mitosis (log2)” value in the data set on HeLa Kyoto [3] was -0.122. The thermal stability score is -0.00128 in the data set on HeLa Kyoto [4] (setting [5]) and 0.22 in the data set on HeLa Kyoto [4] (cell cycle stage: mitosis).

For the sequence “MALLHSGRVLPGIAAAFHPGLAAAASARASSWWTHVEMGPPDPILGVTEAFKRDTNSKKMNLGVGAYRDDNGKPYVLPSVRKAEAQIAAKNLDKEYLPIGGLAEFCKASAELALGENSEVLKSGRFVTVQTISGTGALRIGASFLQRFFKFSRDVFLPKPTWGNHTPIFRDAGMQLQGYRYYDPKTCGFDFTGAVEDISKIPEQSVLLLHACAHNPTGVDPRPEQWKEIATVVKKRNLFAFFDMAYQGFASGDGDKDAWAVRHFIEQGINVCLCQSYAKNMGLYGERVGAFTMVCKDADEAKRVESQLKILIRPMYSNPPLNGARIAAAILNTPDLRKQWLQEVKVMADRIIGMRTQLVSNLKKEGSTHNWQHITDQIGMFCFTGLKPEQVERLIKEFSIYMTKDGRISVAGVTSSNVGYLAHAIHQVTK [GOT2]”, in the data set with HeLa Kyoto [1], the “solubility in G1/S (log2)” value turned out to be 0.165. Moreover, the melting temperature came out at 59.4 °C with HeLa Kyoto [2] (cell cycle stage: G1/S) and 58.8 °C with HeLa Kyoto [2] (cell cycle stage: mitosis). The “solubility change mitosis (log2)” value in the data set with HeLa Kyoto [3] was -0.0966. For the same sequence, the thermal stability score was -1.18 in the data set with HeLa Kyoto [4] (setting [5]) and -2.25 in the data set with HeLa Kyoto [4] (cell cycle stage: mitosis).

On to “MALLPRALSAGAGPSWRRAARAFRGFLLLLPEPAALTRALSRAMACRQEPQPQGPPPAAGAVASYDYLVIGGGSGGLASARRAAELGARAAVVESHKLGGTCVNVGCVPKKVMWNTAVHSEFMHDHADYGFPSCEGKFNWRVIKEKRDAYVSRLNAIYQNNLTKSHIEIIRGHAAFTSDPKPTIEVSGKKYTAPHILIATGGMPSTPHESQIPGASLGITSDGFFQLEELPGRSVIVGAGYIAVEMAGILSALGSKTSLMIRHDKVLRSFDSMISTNCTEELENAGVEVLKFSQVKEVKKTLSGLEVSMVTAVPGRLPVMTMIPDVDCLLWAIGRVPNTKDLSLNKLGIQTDDKGHIIVDEFQNTNVKGIYAVGDVCGKALLTPVAIAAGRKLAHRLFEYKEDSKLDYNNIPTVVFSHPPIGTVGLTEDEAIHKYGIENVKTYSTSFTPMYHAVTKRKTKCVMKMVCANKEEKVVGIHMQGLGCDEMLQGFAVAVKMGATKADFDNTVAIHPTSSEELVTLR [GSR]”, for which the “solubility in G1/S (log2)” value in the data set on HeLa Kyoto [1] turned out to be 0.127. The melting temperature was 58.8 °C in the data set with HeLa Kyoto [2] (cell cycle stage: G1/S) and 59.7 °C in the data set with HeLa Kyoto [2] (cell cycle stage: mitosis). In addition, the “solubility change mitosis (log2)” value with HeLa Kyoto [3] is -0.09. The thermal stability score was -1.7 with HeLa Kyoto [4] (setting [5]) and -2.29 with HeLa Kyoto [4] (cell cycle stage: mitosis).
